Assay [1] has as its target MET-ECD-Fc-His (WT) (human) (UniProt P08581). Briefly: SPR. On the technique in general: Surface plasmon resonance follows binding to a sensor surface in real time, without labels.
Assay [2] concerns the target MET-ECD-Fc-His V370D (human) (UniProt P08581). Briefly: SPR.

The record followed here is PMC6778621.

Consider “SP domain of HGF (β-chain) (domain or fragment)”, for which the dissociation constant (Kd) was determined as 858 nM in assay [1] and 914 nM in assay [2].

What is called Kd is the concentration at which binding is half-saturated.
